Data reported in the supplement of paper PMC12764529.
± gives the half width of the 95% confidence interval.

Key:
[1] = folding stability dG unfold from chymotrypsin proteolysis; higher = more stable
In short: (§1)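 Bayesian fitting of sequencing counts gave K50 for each design. Unfolding free energy followed by setting this against a sequence-predicted unfolded-state K50 and a shared folded-state K50, either per protease or with trypsin and chymotrypsin combined. The designs, under 80 residues and lacking cysteine, were digested in a PA-tagged cDNA display format at 11 threefold-diluted protease concentrations and without protease, and only those with AlphaFold2 dimer inter-PAE above 15 were kept.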

[2] = folding stability dG unfold from trypsin proteolysis; higher = more stable
In short: as §1

[3] = folding stability dG unfold (combined trypsin and chymotrypsin); higher = more stable
In short: as §1

Sequence: SAGGSAGGSAGMSVSLTSTTVSLPPELLSPEEAARTEDAVVTTTTSTLPAVVDPATGTVTSAGGSAGGSAGG [r17_310_JUSTAS]
- folding stability dG unfold [1]: 0.518 ± 0.043 kcal/mol
- folding stability dG unfold [2]: 1.92 ± 0.057 kcal/mol
- folding stability dG unfold [3]: 1.39 ± 0.092 kcal/mol

Sequence: SAGGSAGGSEMEVKVTVEPAPAGAPPGAVVRVEVEFEDGFRITVRFTFVDGKLRAEVTEIKPVSAGGSAGGS [r12_1049_TrROS_Hall]
- folding stability dG unfold [1]: 3.65 ± 0.061 kcal/mol
- folding stability dG unfold [2]: 2.92 ± 0.085 kcal/mol
- folding stability dG unfold [3]: 3.37 ± 0.1 kcal/mol

Sequence: SAGGMKVEVEKDPIKDGTTITVETGLDPEEVRAFLEELLGPPLEDVTFETAPDGTLVVTARVPPDVGSAGGS [r16_605_JUSTAS]
- folding stability dG unfold [1]: 0.564 ± 0.048 kcal/mol
- folding stability dG unfold [2]: 0.627 ± 0.054 kcal/mol
- folding stability dG unfold [3]: 0.816 ± 0.12 kcal/mol

Sequence: SAGGSAGGSSMPTMTKVGDTWLYYDPSTDIKRPATVTVDDGKITIDGDSGTTVYDGDLVIETSSAGGSAGGS [r12_683_JUSTAS]
- folding stability dG unfold [1]: -0.313 ± 0.13 kcal/mol
- folding stability dG unfold [2]: 0.389 ± 0.057 kcal/mol
- folding stability dG unfold [3]: 0.149 ± 0.1 kcal/mol

Sequence: SAGGSAGGSAPELVKKIAEELPVPVKVEPFGNVLLVELELPNEDGEPVKLRLAIPIPPELLGSAGGSAGGSA [r18_27_TrMRF]
- folding stability dG unfold [1]: 0.909 ± 0.12 kcal/mol
- folding stability dG unfold [2]: -0.195 ± 0.11 kcal/mol
- folding stability dG unfold [3]: 0.463 ± 0.19 kcal/mol

Sequence: SKKVKPIATIDVEGMSLEELLAAIKAALPPGEKAIVRIVNADGEVRTIEIDAKTGEIKSLPPGARIYIYPSA [r9_853_TrROS_Hall]
- folding stability dG unfold [1]: 1.95 ± 0.035 kcal/mol
- folding stability dG unfold [2]: 2.1 ± 0.027 kcal/mol
- folding stability dG unfold [3]: 2.02 ± 0.048 kcal/mol

Sequence: SAGGSAGGDPNDKPMKFELIETFTIPGNLNEAKDFLEDLLPPNWAINVEQEPGMITITIYKMKDSAGGSAGG [r6_953_TrROS]
- folding stability dG unfold [1]: 2.23 ± 0.073 kcal/mol
- folding stability dG unfold [2]: 1.78 ± 0.17 kcal/mol
- folding stability dG unfold [3]: 2.22 ± 0.2 kcal/mol

Sequence: SAGGSAEIWIWMPYDMIESLAKKAGDPNVKVEPVEPPDDNPGEPYWFKITLKDNGKPKREIEFWFPSAGGSA [r15_428_TrROS]
- folding stability dG unfold [1]: 2.67 ± 0.045 kcal/mol
- folding stability dG unfold [2]: 1.34 ± 0.031 kcal/mol
- folding stability dG unfold [3]: 2.23 ± 0.15 kcal/mol

Sequence: SAGGSAGGSSVLEVDPETGITVAVQDPSTGRYYVRNPEGEIREFDSPEEIREAFGRPVNFKTAPSAGGSAGG [r6_753_JUSTAS]
- folding stability dG unfold [1]: 0.787 ± 0.082 kcal/mol
- folding stability dG unfold [2]: 0.559 ± 0.018 kcal/mol
- folding stability dG unfold [3]: 0.753 ± 0.057 kcal/mol

Sequence: SAGKEIIIPFRDIPPKYIKNQLKKFPPGKEIRIMFPGPEVADYLKEKGFPVRPERIKPITPDDMAKMMNSAG [r5_354_TrROS]
- folding stability dG unfold [1]: -0.186 ± 0.26 kcal/mol
- folding stability dG unfold [2]: -0.149 ± 0.4 kcal/mol
- folding stability dG unfold [3]: -0.258 ± 0.28 kcal/mol

Sequence: SAGGSAGGSAGGEKKWIFMVSFRHPDGKERKFTFPWNDLEEIKENLPGIDDVEIEWMPMSAGGSAGGSAGGS [r10_437_TrROS]
- folding stability dG unfold [1]: 0.961 ± 0.28 kcal/mol
- folding stability dG unfold [2]: -0.025 ± 0.2 kcal/mol
- folding stability dG unfold [3]: 0.773 ± 0.19 kcal/mol

Sequence: SAGGSAGGSKTIEIVVPPNTTPEEIAKKLKELFPDAKITSVEVYVDKKTKKIVYVKVKIEVKPSAGGSAGGS [r12_822_TrROS_Hall]
- folding stability dG unfold [1]: 3.82 ± 0.057 kcal/mol
- folding stability dG unfold [2]: 2.68 ± 0.1 kcal/mol
- folding stability dG unfold [3]: 3.46 ± 0.087 kcal/mol

Sequence: STKLLPFEEALKEAEKAIKEGKKKVNITIYTPDGKTFNLTDVEKVKEFIEKEFPGISLSELTVTVSITPPES [r1_325_JUSTAS]
- folding stability dG unfold [1]: 3.53 ± 0.065 kcal/mol
- folding stability dG unfold [2]: 2.86 ± 0.068 kcal/mol
- folding stability dG unfold [3]: 3.3 ± 0.067 kcal/mol

Sequence: SAGGSAGGSAGGSSSSASVEVKTETSVSYDPSTGRTYTTTTSKYPLTNTTVTTTTTDPTSAGGSAGGSAGGS [r10_187_JUSTAS]
- folding stability dG unfold [1]: 0.139 ± 0.15 kcal/mol
- folding stability dG unfold [2]: 0.955 ± 0.03 kcal/mol
- folding stability dG unfold [3]: 0.621 ± 0.17 kcal/mol

Sequence: SAGGSAGGSKEKKYLVIELKLKVPPGMSPEELAKLLESLPGLKVVEIVEVDEESGTVKIVVELSAGGSAGGS [r12_712_TrROS_Hall]
- folding stability dG unfold [1]: 3.54 ± 0.096 kcal/mol
- folding stability dG unfold [2]: 2.02 ± 0.046 kcal/mol
- folding stability dG unfold [3]: 3.07 ± 0.16 kcal/mol

Sequence: SNVHIHVEPDPDGRVKITLMMPPDNPDEFAEEIAENLGYPVKITDIEPFPFKKNGKPREYYMIEIEIRLPSA [r9_431_TrROS]
- folding stability dG unfold [1]: 2.56 ± 0.2 kcal/mol
- folding stability dG unfold [2]: 1.15 ± 0.13 kcal/mol
- folding stability dG unfold [3]: 2.17 ± 0.25 kcal/mol

Sequence: SAGGSAGGSAGGTPIAETEVSEDPATGKLITTSKSPTDPKVYVTTTDLATGVPTTTPLLSAGGSAGGSAGGS [r10_1034_JUSTAS]
- folding stability dG unfold [1]: 0.213 ± 0.047 kcal/mol
- folding stability dG unfold [2]: 0.761 ± 0.031 kcal/mol
- folding stability dG unfold [3]: 0.524 ± 0.064 kcal/mol

Sequence: SAGGSAGGSAGGMLILVEVNGEKRLLEADSLEDALAKLPPGATVTRVEIFEVEEVELPESAGGSAGGSAGGS [r10_13_TrROS_Hall]
- folding stability dG unfold [1]: 2 ± 0.059 kcal/mol
- folding stability dG unfold [2]: 2.36 ± 0.067 kcal/mol
- folding stability dG unfold [3]: 2.15 ± 0.068 kcal/mol

Sequence: SAGKMVKITITGPADKIKELLKKLFPNAEVEVKKVNGKLVFYFKPGEEVIEIEITDKDGNKLTIKIEKVSAG [r5_123_TrROS_Hall]
- folding stability dG unfold [1]: 3.74 ± 0.087 kcal/mol
- folding stability dG unfold [2]: 2.54 ± 0.066 kcal/mol
- folding stability dG unfold [3]: 3.48 ± 0.17 kcal/mol

Sequence: SAGGDKDNKPPIPTKTITFMLPYDSPEDAKDYAEEIARELFQEEGIPIKVTVQYNPESGWVWVTITIYSAGG [r13_517_TrROS]
- folding stability dG unfold [1]: 4.57 ± 0.075 kcal/mol
- folding stability dG unfold [2]: 3.49 ± 0.1 kcal/mol
- folding stability dG unfold [3]: 4.32 ± 0.12 kcal/mol

Sequence: SAGGSAGPSSKPIPLYVLFLEVTKPGGEKLPLVKLVKSPEEALKIAEEIASKGYEVKLVLAPASEISAGGSA [r15_906_TrMRF]
- folding stability dG unfold [1]: 2.92 ± 0.07 kcal/mol
- folding stability dG unfold [2]: 2.74 ± 0.081 kcal/mol
- folding stability dG unfold [3]: 2.88 ± 0.084 kcal/mol
